Broadly, the Km is the substrate concentration at which the rate is half of its maximum.

Substrate in this data set: CC1=CC(=O)CC(C)(C)[C@@]1(O)/C=C/C(C)=C\C(=O)O
Description: cells, lysate or membranes. It counts as cell-based, Arabidopsis thaliana. As to conditions: pH 6.0, ND96, 0-5 μM ABA, labelled compound (10% 3H-ABA, 90% cold), apparent Km.

B1: NPF4.5 (Arabidopsis thaliana) (protein)
chain: MEVEMHGDVSKWEGYADWRNKAALRGRHGGMLAASFVLAVEILENLAFLANASNLVLYLKNFMHMSLARSSSEVTTFMATAFLLALLGGFLADAFFSTFVIFLISASIEFLGLILLTIQARRPSLMPPPCKSSAALRCEVVGGSKAAFLFVGLYLVSLGIGGIKGSLPSHGAEQFDEGTPKGRKQRSTFFNYYVFCLSCGALVAVTFVVWIEDNKGWEWGFGVSTISIFLSILVFLLGSRFYKNKIPRGSPLTTIFKVLLAASIVSCSSKTSSNHFTSREVQSEHEEKTPSQSLTNSLTCLNKAIEGKTHHIWLECTVQQVEDVKIVLKMLPIFGCTIMLNCCLAQLSTYSVHQAATMNRKIVNFNVPSASLPVFPVVFMLILAPTYDHLIIPFARKVTKSEIGITHLQRIGVGLVLSIVAMAVAALVELKRKQVAREAGLLDSEETLPITFLWIALQYLFLGSADLFTLAGLLEFFFTEAPSSMRSLATSLSWASLALGYYLSSVMVPIVNRVTKSAGQSPWLGEKLNRNRLDLFYWLMCVLSVVNFLHYLFWAKRYKYISTGSIS
notes: full CDS (ABRC, pENTR223) in pGEM-GWC; cRNA-injected Xenopus oocytes; tag not given
Regarding B1, the Km stood at 0.522 ± 0.041 µM.

B2: NPF4.6 (Arabidopsis thaliana) (protein)
chain: MEVEEEVSRWEGYADWRNRAAVKGRHGGMLAASFVLVVEILENLAYLANASNLVLYLREYMHMSPSKSANDVTNFMGTAFLLALLGGFLSDAFFSTFQIFLISASIEFLGLIILTIQARTPSLMPPSCDSPTCEEVSGSKAAMLFVGLYLVALGVGGIKGSLASHGAEQFDESTPKGRKQRSTFFNYFVFCLACGALVAVTFVVWLEDNKGWEWGFGVSTIAIFVSILIFLSGSRFYRNKIPCGSPLTTILKVLLAASVKCCSSGSSSNAVASMSVSPSNHCVSKGKKEVESQGELEKPRQEEALPPRAQLTNSLKVLNGAADEKPVHRLLECTVQQVEDVKIVLKMLPIFACTIMLNCCLAQLSTFSVQQAASMNTKIGSLKIPPASLPIFPVVFIMILAPIYDHLIIPFARKATKTETGVTHLQRIGVGLVLSILAMAVAALVEIKRKGVAKDSGLLDSKETLPVTFLWIALQYLFLGSADLFTLAGLLEYFFTEAPSSMRSLATSLSWASLAMGYYLSSVIVSIVNSITGSSGNTPWLRGKSINRYKLDYFYWLMCVLSAANFLHYLFWAMRYKYRSTGSRS
notes: full CDS (pDONR207) in pGEM-GWC; cRNA-injected Xenopus oocytes; tag not given
For the protein B2, the Km is 0.452 ± 0.025 µM.

These data come from article PMC7054286, “Functional Characterization of the Arabidopsis Abscisic Acid Transporters NPF4.5 and NPF4.6 in Xenopus Oocytes” (Frontiers in Plant Science, 2020).
